Where no end group is shown, it is not given here.
T1: Abeta1-11 (UniProt P05067 672-682)
T1 construct: range 1-11; Range is counted on the Abeta peptide
T1 peptide (looked up): DAEFRHDSGYE

T2: Abeta17-28 (UniProt P05067 688-699)
T2 construct: range 17-28; Range is counted on the Abeta peptide
T2 peptide (looked up): LVFFAEDVGSNK

T3: peptide consisting of amino acids 22-35 of Abeta (UniProt P05067 693-706)
T3 construct: range 22-35; Range is counted on the Abeta peptide; also called Abeta22-35
T3 peptide (looked up): EDVGSNKGAIIGLM

B1: antibody NI-103 (antibody, V domains shown)
VH: EVQLHQSGPELVKPGASVKISCKTSGYTFTEYTMHWVKQSHGKSLEWIGGVNPYNDNTSYIRKLQGKVTLTVDRSSSTAYMELRSLTSEDSAVYFCARYGGLRPYYFPMDFWGQGTSVTVSS
VL: QVVLSQSPAILSASPGERVTLTCRASSSVNYMHWYQQKPGSSPKAWIYATSNLASGVPDRFSASGSGTSYSLTISRVEAEDAATYYCQQWRTNPPTFGAGTKLELKR
notes: detected in ELISA with anti-mouse IgG; treated as the same molecule
B2: Abeta29-40 fragment (peptide)
peptide: GAIIGLMVGGVV
modifications: not fully specified

Legend:
Abeta29-40 fragment = molecular target: B2; assay: ELISA, peptide coated at 1 ug/ml
Procedure: (§1) 96 well half area Microplates (Corning) were coated with synthetic Abeta-peptide preparations at a standard concentration of 1 μg/ml in coating buffer (15 mM Na₂CO₃, 35 mM NaHCO₃, pH 9.42) overnight at 4° C. Plates were washed and non-specific binding sites were blocked for 1 h at RT with PBS containing 2% BSA (Sigma, Buchs, Switzerland).

Abeta1-11 = molecular target: T1, Abeta1-11; assay: ELISA, peptide coated at 1 ug/ml
Procedure: as §1

Abeta1-28 = molecular target: T4, Abeta1-28 (UniProt P05067 672-699); assay: ELISA, peptide coated at 1 ug/ml
T4 construct: range 1-28; Range is counted on the Abeta peptide
Procedure: as §1

Abeta17-28 = molecular target: T2, Abeta17-28; assay: ELISA, peptide coated at 1 ug/ml
Procedure: as §1

Abeta1-38 = molecular target: T5, Abeta1-38 (UniProt P05067 672-709); assay: ELISA, peptide coated at 1 ug/ml
T5 construct: range 1-38; Range is counted on the Abeta peptide; also called Abeta fragment consisting of amino acids 1-38
Procedure: as §1

[1] = molecular target: T3, peptide consisting of amino acids 22-35 …; assay: ELISA, peptide coated at 1 ug/ml
Procedure: as §1

[2] = molecular target: T6, human wild type APP fused at the intracellular C-terminus to the yellow fluorescent protein variant Citrine, … (human, UniProt P05067 18-770); assay: immunofluorescence on live HEK 293 cells expressing human APP-Citrine, 30 min at 4 C
T6 construct: whole, on cells; also called cellular full-length APP; cell-surface APP; not shown: yellow fluorescent protein variant Citrine at the intracellular C-terminus
Procedure: HEK 293 cells were transiently transfected with a vector that expresses human wild type APP fused at the intracellular C-terminus to the yellow fluorescent protein variant Citrine. 24 hours after transfection the cells were incubated with human recombinant antibodies or control antibodies at 4° C. for 30 minutes. After a washing step the cell were fixed and surface-bound antibody was detected using Cy-3-labeled secondary antibodies to human or mouse IgG (Jackson ImmunoResearch). Analysis of fluorescence was performed on a confocal microscope (Leica).
Citrin-positive signals indicate APP-expressing cells.

antibody NI-103 = molecular target: B1; assay: competition ELISA, peptide at 1 µM in solution against coated Abeta1-42
Procedure: as §1

Row | binding result (Abeta29-40 fragment) | binding result (Abeta1-11) | binding result (Abeta1-28) | binding result (Abeta17-28) | binding result (Abeta1-38) | binding result [1] | binding result [2] | binding result (antibody NI-103) | Binder
1 | binds | no binding | no binding | no binding | no binding | no binding | no binding | – | B1
2 | – | – | – | – | – | – | – | binds | B2
